The values that follow come from patent US9644017B2, “Insulin derivatives having an extremely delayed time-action profile” (Sanofi-Aventis Deutschland GmbH, priority 2008, dated 2017).

For series [1] the following is noted: cited from earlier work.
Series [2] relates to healthy male normoglycemic Wistar rats. Description: Blood glucose-lowering effect of novel insulin analogues in rats. Format: in vivo, rat. As to conditions: 9 nmol/kg s.c., n=8, up to eight hours, FIG. 1.
Experimental: The blood glucose-lowering effect of selected novel insulin analogues is tested in healthy male normoglycemic Wistar rats. Male rats receive subcutaneous injection of a dose of 9 nmol/kg of an insulin analogue. Blood samples are taken from the animals immediately before the injection of the insulin analogue and at regular intervals up to eight hours after the injection, and the blood glucose content therein is determined.

For “Arg (A0), Gly (A21), Arg (B31), Arg (B32) human insulin [Compound 18 from Kohn et al.]”, the “calculated pI” value in series [1] (calculated) is recorded as 7.58. In series [1] (experimentally determined), the “experimentally determined pI” value is 7.3.
As to “Gly (A21), Arg (B31), Arg (B32) human insulin [insulin glargine]”, the “hypoglycemic effect / time-action profile in rats” value in series [2] is “delayed action of insulin glargine cannot by contrast be unambiguously observed in rats”.
